Laboratory results reported in patent US20190330372A1 (Novartis, published 2019).
Values joined by “and” are separate entries in the source; they are usually repeats but may differ in a detail not shown here. Equal entries are not always repeated.

Experiments:
[1] = target: T1, human plasma derived FXIa (human, UniProt P03951 19-625); assay: cell-based or functional assay
[2] = target: T1, human plasma derived FXIa; assay: cell-based or functional assay; remark: listed apart in the source
[3] = target: T2, human plasma-derived FXI (human, UniProt P03951 19-625); assay: direct ELISA, panel 'Human plasma FXI': antigen coated on the plate, IgG titrated, AP-anti-human F(ab)2 and AttoPhos fluorescence (RFU); half-maximal binding concentration of the fit, headed 'IC50' in the drawn table; unit taken from the axis 'Conc. [nM]'
T2 construct: This is the zymogen, which has two chains; also called human FXI; Factor XI
T2 sequence (P03951 19-625 C226S limits assumed): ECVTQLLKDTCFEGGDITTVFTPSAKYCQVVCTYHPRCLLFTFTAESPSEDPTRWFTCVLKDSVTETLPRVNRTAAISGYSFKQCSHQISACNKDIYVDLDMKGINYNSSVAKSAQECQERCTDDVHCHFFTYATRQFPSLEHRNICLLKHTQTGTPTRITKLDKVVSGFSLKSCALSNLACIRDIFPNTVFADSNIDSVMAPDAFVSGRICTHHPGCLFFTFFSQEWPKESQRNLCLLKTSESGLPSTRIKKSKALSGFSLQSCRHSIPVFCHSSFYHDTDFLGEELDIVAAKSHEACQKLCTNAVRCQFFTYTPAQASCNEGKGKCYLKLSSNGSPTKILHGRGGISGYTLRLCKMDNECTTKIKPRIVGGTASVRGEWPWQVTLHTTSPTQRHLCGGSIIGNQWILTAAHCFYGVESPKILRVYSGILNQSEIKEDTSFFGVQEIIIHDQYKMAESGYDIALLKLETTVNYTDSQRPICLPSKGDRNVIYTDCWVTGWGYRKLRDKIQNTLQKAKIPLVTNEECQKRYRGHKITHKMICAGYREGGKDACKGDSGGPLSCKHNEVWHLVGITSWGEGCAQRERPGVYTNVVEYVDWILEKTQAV
Experimental: (§1) For direct coating ELISAs, antigens were immobilized on 384-well Maxisorp™ microtiter plates over night at 4° C. using the concentrations as shown in Table 5. After blocking with 5% skim milk powder in PBS (80 μl/well), 20 μl/well of Fab-containing E. coli lysates or purified antibodies at various concentrations (typically 12 points of a 1:3 titration starting at 200 nM IgG or Fab, respectively) were added to plates and incubated for 1 h at room temperature. […] Fluorescence emission at 535 nm was recorded with excitation at 430 nm. Multiple wash steps with PBS+0.05% Tween20 were performed in between individual assay steps.

[4] = target: cynomolgus monkey FXI (cynomolgus monkey); assay: direct ELISA, panel 'Cynomolgus monkey FXI': antigen coated on the plate, IgG titrated, AP-anti-human F(ab)2 and AttoPhos fluorescence (RFU); half-maximal binding concentration of the fit, headed 'IC50' in the drawn table; unit taken from the axis 'Conc. [nM]'
cynomolgus monkey FXI (cynomolgus monkey), sequence (P03951 other isoform, or with tags, fused parts or gaps): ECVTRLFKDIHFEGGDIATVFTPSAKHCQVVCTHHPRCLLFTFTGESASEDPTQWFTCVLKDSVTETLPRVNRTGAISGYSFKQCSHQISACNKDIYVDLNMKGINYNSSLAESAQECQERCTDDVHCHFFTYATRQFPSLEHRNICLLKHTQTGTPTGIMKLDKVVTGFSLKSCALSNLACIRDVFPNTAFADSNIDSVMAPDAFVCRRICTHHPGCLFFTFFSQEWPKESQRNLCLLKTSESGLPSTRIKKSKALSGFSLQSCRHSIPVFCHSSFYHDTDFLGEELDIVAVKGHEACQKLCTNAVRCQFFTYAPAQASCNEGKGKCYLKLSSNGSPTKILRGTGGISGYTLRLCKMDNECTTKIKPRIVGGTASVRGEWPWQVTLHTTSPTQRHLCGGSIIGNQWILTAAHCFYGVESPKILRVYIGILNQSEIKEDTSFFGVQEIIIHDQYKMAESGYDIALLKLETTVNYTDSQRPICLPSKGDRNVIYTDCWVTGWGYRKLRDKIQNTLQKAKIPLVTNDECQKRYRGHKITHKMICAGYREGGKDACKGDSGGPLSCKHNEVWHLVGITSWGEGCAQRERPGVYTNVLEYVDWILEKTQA
Experimental: as §1

[5] = target: human kallikrein (human, UniProt P03952 20-638); assay: direct ELISA, panel 'Human Kallikrein': antigen coated on the plate, IgG titrated, fluorescence (RFU)
human kallikrein, sequence (P03952 20-638 limits assumed): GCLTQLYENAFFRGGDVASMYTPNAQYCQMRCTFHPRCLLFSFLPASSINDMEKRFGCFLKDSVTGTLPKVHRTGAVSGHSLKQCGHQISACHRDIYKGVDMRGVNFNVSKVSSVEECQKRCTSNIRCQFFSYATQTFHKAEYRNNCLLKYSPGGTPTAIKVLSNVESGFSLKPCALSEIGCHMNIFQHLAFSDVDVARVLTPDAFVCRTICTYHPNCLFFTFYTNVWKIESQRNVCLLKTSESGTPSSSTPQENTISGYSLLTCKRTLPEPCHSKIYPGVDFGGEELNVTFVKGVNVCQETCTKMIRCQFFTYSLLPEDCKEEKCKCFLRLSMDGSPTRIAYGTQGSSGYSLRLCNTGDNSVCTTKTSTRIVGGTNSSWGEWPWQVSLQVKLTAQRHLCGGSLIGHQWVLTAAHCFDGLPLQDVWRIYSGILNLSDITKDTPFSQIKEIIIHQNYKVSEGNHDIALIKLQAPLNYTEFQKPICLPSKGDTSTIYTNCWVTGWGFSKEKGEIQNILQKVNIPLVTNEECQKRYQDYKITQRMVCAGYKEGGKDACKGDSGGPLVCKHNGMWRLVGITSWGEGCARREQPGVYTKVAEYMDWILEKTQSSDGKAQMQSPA
Experimental: as §1

[6] = target: rabbit FXI (rabbit); assay: direct ELISA, panel 'Rabbit FXI': antigen coated on the plate, IgG titrated, AP-anti-human F(ab)2 and AttoPhos fluorescence (RFU); half-maximal binding concentration of the fit, headed 'IC50' in the drawn table; unit taken from the axis 'Conc. [nM]'
Experimental: as §1

[7] = target: T1, human plasma derived FXIa; assay: direct ELISA, panel 'Human plasma FXIa': antigen coated on the plate, IgG titrated, AP-anti-human F(ab)2 and AttoPhos fluorescence (RFU); half-maximal binding concentration of the fit, headed 'IC50' in the drawn table; unit taken from the axis 'Conc. [nM]'
Experimental: as §1

[8] = target: human pre-kallikrein (human, UniProt P03952 20-638); assay: direct ELISA, panel 'Human Pre-kallikrein': antigen coated on the plate, IgG titrated, fluorescence (RFU)
human pre-kallikrein, sequence (P03952 20-638 limits assumed): as above
Experimental: as §1

[9] = target: T1, human plasma derived FXIa; assay: solution equilibrium titration (SET), ECL read-out, purified Fab at 500 pM with titrated hFXIa; ± is the 95% confidence interval of the fit
Experimental: (§2) Experiments were carried out in polypropylene microtiter plates and with PBS (GIBCO 14190, pH 7.0-7.2) containing 0.5% BSA and 0.02% Tween20 as assay buffer. Serial dilutions of unlabeled FXIa antigen were prepared, starting with a concentration at least 10 times higher than the expected KD. Wells without antigen were used to determine Bₘₐₓ values; wells containing only assay buffer were used to determine background. After addition of an appropriate amount of binder (antibody concentration similar to or below the expected KD, 60 μL final volume), the mixture was incubated over night at RT.
(§3) MSD plates were coated with 1 μg/mL human plasma derived FXIa (30 μL per well). After washing the plate with PBS containing 0.05% Tween 20, the equilibrated samples were transferred to the plates and incubated for 20 min. Following incubation, 30 μL per well of the MSD-Sulfo-tag labeled detection antibody (anti-Flag M2 (Sigma) 1:2,000) was added to the washed MSD plate and incubated for 30 min at RT on an Eppendorf shaker (700 rpm).
After washing the MSD plate and adding 30 μL/well MSD Read Buffer T with surfactant, electrochemiluminescence signals were detected using a Sector Imager 6000 (Meso Scale Discovery, Gaithersburg, Md., USA).

[10] = target: T1, human plasma derived FXIa; assay: solution equilibrium titration (SET), IgG at 20 pM, 1:1 binding model
Experimental: as §2, §3
The SET method described in Example 2 was used to determine the KD for AM4 (IgG), and compared to NOV1401, the germlined version of its parental antibody NOV1090.

[11] = target: T1, human plasma derived FXIa; assay: direct ELISA, panel 'Human plasma FXIa': antigen coated on the plate, IgG titrated, AP-anti-human F(ab)2 and AttoPhos fluorescence (RFU); the printed IC50 cell of this row is under recheck
Experimental: as §1

[12] = target: T1, human plasma derived FXIa; assay: method not stated in the sentence (compared with the SET KD of NOV1090 Fab); NOV1401 Fab, cited for comparison with the SET KD of NOV1090 Fab
[13] = target: T1, human plasma derived FXIa; assay: SET screening compared with SET KD of NOV1090 Fab
[14] = target: T1, human plasma derived FXIa; assay: SET KD estimates of Fabs compared with SET KD of NOV1090 Fab
[15] = target: T1, human plasma derived FXIa; assay: SET screening, KD estimate from 5 data points, unpurified Fab in bacterial lysate; ± is the 95% confidence interval of the fit
Description: To estimate Fab KDs, bacterial lysates were screened by SET. The SET screening method (see, e.g., Della Ducata et al (2015) J Biomol Screen; 20(10):1256-67) was generally performed as described above for the SET determination method. For ranking of the matured binders by SET based on the principles described by Haenel and coworkers (Haenel et al (2005) Anal Biochem; 339(1):182-4), a constant amount of diluted BEL extract (bacterial lysate) was equilibrated over night with different concentrations of antigen.
The mixture was then transferred to MSD plates, which were previously coated with antigen (1 μg/mL human plasma FXIa), and after incubation and washing, a suitable MSD-Sulfo-tag labeled detection antibody was added (anti-Flag M2, Sigma).

T1 sequence (P03951 19-625 C226S limits assumed): as the sequence (P03951 19-625 C226S limits assumed) above

Binder | TGA IC50 [2] [nM] | TGA Residual Thrombin [nM] (%) [2] | IC50 [3] [nM] | IC50 [4] [nM] | binding result [5] | IC50 [6] [nM] | binding result [8] | fold lower KD than NOV1090 Fab [13] [fold] | fold increase in affinity over NOV1090 Fab [14] [fold] | Kd [15] [nM] | further results
AM1 (IgG) (antibody, V domains shown) VH: QVQLLESGGGLVQPGGSLRLSCAASGFTFSTAAMSWVRQAPGKGLEWVSTIDSWGDDTDYADSVKGRFTISRDNSKNTLYLQMNSLRAEDTAVYYCARELSYLYSGYYFDYWGQGTLVTVSS VL: DIVLTQPPSVSGAPGQRVTISCSGSSSNIGSNDVSWYQQLPGTAPKLLIYKNYNRPSGVPDRFSGSKSGTSASLAITGLQAEDEADYYCSAWDQRQFDVVFGGGTKLTVLG | 6 | 180 nM and 37.5% | 0.215 | 0.448 | no binding (tested: about 200 nM) | 0.463 | no binding (tested: about 200 nM) | – | – | – | TGA IC50, fold lower compared to NOV1401 [1]: ~4 fold; IC50 [7]: 0.274 nM
NOV1090 Fab (Fab, V domains shown, Purified HuCAL Fab, at least 90% monomer; It was detected with anti-Flag M2, so it carries a Flag tag; also called anti-FXI/FXIa Fab; parental NOV1090 Fab fragment) VH: QVQLLESGGGLVQPGGSLRLSCAASGFTFSTAAMSWVRQAPGKGLEWVSGISGSGSSTYYADSVKGRFTISRDNSKNTLYLQMNSLRAEDTAVYYCARELSYLYSGYYFDYWGQGTLVTVSS VL: DIVLTQPPSVSGAPGQRVTISCSGSSSNIGSNDVSWYQQLPGTAPKLLIYKNYNRPSGVPDRFSGSKSGTSASLAITGLQAEDEADYYCSAWDQRQFDVVFGGGTKLTVL | – | – | – | – | – | – | – | – | – | – | Kd [9]: 0.21 nM
NOV1401 (IgG) (antibody, V domains shown, Germlined version of NOV1090, human IgG1/lambda with D265A and P329A in the Fc) VH: QVQLLESGGGLVQPGGSLRLSCAASGFTFSTAAMSWVRQAPGKGLEWVSGISGSGSSTYYADSVKGRFTISRDNSKNTLYLQMNSLRAEDTAVYYCARELSYLYSGYYFDYWGQGTLVTVSS VL: QSVLTQPPSASGTPGQRVTISCSGSSSNIGSNDVSWYQQLPGTAPKLLIYKNYNRPSGVPDRFSGSKSGTSASLAISGLQSEDEADYYCSAWDQRQFDVVFGGGTKLTVLG | 24 | 159 nM and 34.4% | – | – | – | – | – | – | – | – | Kd [10]: 0.00312 nM
NOV1090 (IgG) (antibody, V domains shown, Non-germlined version of NOV1401, human IgG1/lambda; also called parental NOV1090; parental IgG) VH: QVQLLESGGGLVQPGGSLRLSCAASGFTFSTAAMSWVRQAPGKGLEWVSGISGSGSSTYYADSVKGRFTISRDNSKNTLYLQMNSLRAEDTAVYYCARELSYLYSGYYFDYWGQGTLVTVSS VL: DIVLTQPPSVSGAPGQRVTISCSGSSSNIGSNDVSWYQQLPGTAPKLLIYKNYNRPSGVPDRFSGSKSGTSASLAITGLQAEDEADYYCSAWDQRQFDVVFGGGTKLTVLG | – | – | 0.392 | 0.58 | no binding (tested: about 200 nM) | 0.504 | no binding (tested: about 200 nM) | – | – | – | EC50 (read off the curve) [11]: ~0.6 nM
NOV1401 Fab (Fab, V domains shown, Fab of NOV1401, the germlined version of NOV1090 with identical CDRs) VH: QVQLLESGGGLVQPGGSLRLSCAASGFTFSTAAMSWVRQAPGKGLEWVSGISGSGSSTYYADSVKGRFTISRDNSKNTLYLQMNSLRAEDTAVYYCARELSYLYSGYYFDYWGQGTLVTVSS VL: QSVLTQPPSASGTPGQRVTISCSGSSSNIGSNDVSWYQQLPGTAPKLLIYKNYNRPSGVPDRFSGSKSGTSASLAISGLQSEDEADYYCSAWDQRQFDVVFGGGTKLTVL | – | – | – | – | – | – | – | – | – | – | Kd [12]: 0.305 nM
AM2 (IgG) (antibody, V domains shown) VH: QVQLLESGGGLVQPGGSLRLSCAASGFTFSTAAMSWVRQAPGKGLEWVSSIEYYDTDTHYADSVKGRFTISRDNSKNTLYLQMNSLRAEDTAVYYCARELSYLYSGYYFDYWGQGTLVTVSS VL: DIVLTQPPSVSGAPGQRVTISCSGSSSNIGSNDVSWYQQLPGTAPKLLIYKNYNRPSGVPDRFSGSKSGTSASLAITGLQAEDEADYYCSAWDQRQFDVVFGGGTKLTVLG | 7 | 186 nM and 36.6% | 0.331 | 0.399 | no binding (tested: about 200 nM) | 0.432 | no binding (tested: about 200 nM) | – | – | – | IC50 [7]: 0.466 nM
AM1 Fab (Fab, V domains shown, Unpurified Fab in bacterial lysate (BEL extract), used in SET screening) VH: QVQLLESGGGLVQPGGSLRLSCAASGFTFSTAAMSWVRQAPGKGLEWVSTIDSWGDDTDYADSVKGRFTISRDNSKNTLYLQMNSLRAEDTAVYYCARELSYLYSGYYFDYWGQGTLVTVSS VL: DIVLTQPPSVSGAPGQRVTISCSGSSSNIGSNDVSWYQQLPGTAPKLLIYKNYNRPSGVPDRFSGSKSGTSASLAITGLQAEDEADYYCSAWDQRQFDVVFGGGTKLTVL | – | – | – | – | – | – | – | ~7 | ~10 | 0.032 | –
AM2 Fab (Fab, V domains shown, Unpurified Fab in bacterial lysate (BEL extract), used in SET screening) VH: QVQLLESGGGLVQPGGSLRLSCAASGFTFSTAAMSWVRQAPGKGLEWVSSIEYYDTDTHYADSVKGRFTISRDNSKNTLYLQMNSLRAEDTAVYYCARELSYLYSGYYFDYWGQGTLVTVSS VL: DIVLTQPPSVSGAPGQRVTISCSGSSSNIGSNDVSWYQQLPGTAPKLLIYKNYNRPSGVPDRFSGSKSGTSASLAITGLQAEDEADYYCSAWDQRQFDVVFGGGTKLTVL | – | – | – | – | – | – | – | ~7 | ~10 | 0.027 | –
AM3 Fab (Fab, V domains shown, Unpurified Fab in bacterial lysate (BEL extract), used in SET screening) VH: QVQLLESGGGLVQPGGSLRLSCAASGFTFSTAAMSWVRQAPGKGLEWVSTIEYSSQETYYADSVKGRFTISRDNSKNTLYLQMNSLRAEDTAVYYCARELSYLYSGYYFDYWGQGTLVTVSS VL: DIVLTQPPSVSGAPGQRVTISCSGSSSNIGSNDVSWYQQLPGTAPKLLIYKNYNRPSGVPDRFSGSKSGTSASLAITGLQAEDEADYYCSAWDQRQFDVVFGGGTKLTVL | – | – | – | – | – | – | – | ~7 | ~10 | 0.029 | –
